Measurements taken from US20220340673A1 (HARBOUR BIOMED SUZHOU, published 2022).

Experiments:
[1] = biological target: T1, human BCMA on cells (HEK293T/huBCMA; NCI-H929) (human, UniProt Q02223 1-184); test: FACS on NCI-H929 cell line [B]
T1 construct: whole, on cells; also called human BCMA molecules on NCI-H929 cell line
T1 sequence (looked up): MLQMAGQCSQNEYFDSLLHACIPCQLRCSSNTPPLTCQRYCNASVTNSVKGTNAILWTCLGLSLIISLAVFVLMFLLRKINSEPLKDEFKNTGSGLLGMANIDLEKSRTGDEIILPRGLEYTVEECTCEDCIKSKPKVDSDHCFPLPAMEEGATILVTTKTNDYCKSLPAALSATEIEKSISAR
Method: To study the binding activity of the BCMA arm of the BCMA×CD3 bispecific antibody to human BCMA, NCI-H929 cell line with highly expressed BCMA was used for binding experiments with human BCMA at cellular level. Briefly, NCI-H929 cell suspensions were collected. The cell density was adjusted to 1×10⁶ cells/mL, and the cells were inoculated in 96 well V-bottom plates at 100 μL cells/well (Corning, Cat#: 3894), followed by the addition of test antibodies at 100 μL/well, which is gradient diluted at 3 folds of the concentration with 2 folds of the final concentration. Cells were incubated at 4° C. for 2 hours in the dark. Afterwards, cells were washed twice with 100 μL/well of pre-cooled PBS, centrifuged at 500 g for 5 min at 4° C., and followed by discarding the supernatant. 100 μL/well of fluorescent secondary antibody (Alexa Fluor 488-conjugated AffiniPure Goat Anti-Human IgG, Fcγ Fragment Specific, Jackson, Cat#:109-545-06, 1:500 dilution) was added and incubated at 4° C. for 1 hour in the dark. Cells were washed twice with 100 μL/well of pre-cooled PBS, centrifuged at 500 g, 4° C. for 5 min, and followed by discarding the supernatant. Finally, the cells were resuspended with 200 μL/well of pre-cooled PBS, and the fluorescence luminescence signal values were read by BD FACS CANTOII.

[2] = biological target: T2, human BCMA protein with Fc Tag (ACRO, Cat#: BC7-H5254) (human, UniProt Q02223 1-54); test: ELISA, plate coated with human BCMA-Fc; antibody blocks the binding of biotinylated human BAFF [B]
T2 construct: Bought reagent coated on the ELISA plate; not shown: Fc tag of the bought protein
T2 sequence (looked up): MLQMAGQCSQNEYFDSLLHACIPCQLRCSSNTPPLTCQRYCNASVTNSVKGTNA
Method: This example was conducted to evaluate the blockage ability of anti-human BCMA HCAb monoclonal antibody to the binding of human BCMA (ACRO, BCA-H522y-100 μg) with ligand BAFF protein (ACRO, BAF-H5248-50 μg). The BAFF protein was biotinylated by using a biotinylation kit (ThermoFisher, A39257, EZ-Link Sulfo-NHS-LC-Biotin) according to the instructions. The plates (Corning, Cat#: 9018) were coated with 1 μg/mL of human BCMA protein with Fc Tag (ACRO, Cat#: BC7-H5254) overnight. The plates were washed for 3 times with PBST, added with 2% BSA and then sealed at room temperature for 1 hour. The plates were washed with PBST for 3 times, and added with test antibody gradient diluted at 3 folds concentration 100 μL/well, with an initial concentration of 50 nM. After being incubated for 1h, the supernatant was discarded and 0.5 μg/mL of biotinylated human BAFF protein (prepared according to conventional methods in the art) was added to the plates at 100 μL/well. The plates were incubated at room temperature for 1 h and discarded the supernatant. Streptavidin-coupled HRP (Bio-RAD, Cat#: 1610380) with 1: 4000 diluted was added at 100 μL/well. The plates were incubated for 1 h at room temperature and washed with PBST for 3 times. […] OD450 values were read by using Enspire (Perkin Elmer).

[3] = biological target: T1, human BCMA on cells (HEK293T/huBCMA; …); test: FACS on HEK293T cell strain overexpressing human BCMA [D]
Method: (§1) This example was conducted to study the binding activity of anti human BCMA HCAb monoclonal antibodies to human and cynomolgus monkey BCMA in vitro. HEK293T cell strain (HEK293T/huBCMA, Beijing Kang yuan) overexpressing human BCMA, HEK293T cell strain (HEK293T/cynoBCMA, Beijing Kang yuan) overexpressing cynomolgus monkey BCMA and NCI- H929 cell line (ATCC® CRL-9068TM) highly expressing human BCMA were used for antibody binding assay at cellular level. Briefly, HEK293T/huBCMA cells and HEK293T/cynoBCMA cells were digested and resuspended with DMEM complete medium, and NCI-H929 cell suspensions were collected by resuspension with DMEM complete medium. The density of the three cells was adjusted to 1×10⁶ cells/mL, respectively. The cells were inoculated at 100 μL cells/well in 96 well V-bottom plates (Corning, Cat#: 3894), followed by the addition of test antibodies at 100 μL/well, which is gradient diluted at 3 folds of the concentration with 2 folds of the final concentration. Cells were incubated at 4° C. for 1 hours in the dark. Afterwards, the cells were washed twice with 100 μL/well of pre-cooled PBS, centrifuged at 500 g for 5 min at 4° C. and followed by discarding the supernatant. […] Finally, the cells were resuspended with 200 μL/well of pre-cooled PBS and the fluorescent luminescence signal values were read by using BD FACS CANTOII.

[4] = biological target: T1, human BCMA on cells (HEK293T/huBCMA; …); test: FACS on NCI-H929 cell line [D]
Method: as §1

[5] = biological target: T3, cynomolgus monkey BCMA on cells (HEK293T/cynoBCMA) (cynomolgus monkey, UniProt A0A2K5UD97 1-183); test: FACS on HEK293T cell strain overexpressing cynomolgus monkey BCMA [D]
T3 construct: whole, on cells
T3 sequence (A0A2K5UD97 entry or part of it): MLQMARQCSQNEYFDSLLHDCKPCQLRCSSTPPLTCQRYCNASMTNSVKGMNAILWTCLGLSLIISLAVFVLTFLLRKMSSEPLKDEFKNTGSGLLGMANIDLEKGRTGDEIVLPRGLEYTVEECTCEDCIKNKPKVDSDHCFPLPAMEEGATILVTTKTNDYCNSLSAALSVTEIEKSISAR
Method: as §1

B1: BCMA x CD3 bispecific antibody PR002299 (bispecific antibody, human IgG1, lambda, L234A L235A)
heavy 1: EVQLLESGGGLVQPGGSLRLSCAASGFTFSTYAMNWVRQAPGKGLEWVSRIRSKYNNYATYYADSVKDRFTISRDDSKSTLYLQMNSLRAEDTAVYYCVRHGNFGNSYVSWFAYWGQGTLVTVSSASTKGPSVFPLAPSSKSTSGGTAALGCLVKDYFPEPVTVSWNSGALTSGVHTFPAVLQSSGLYSLSSVVTVPSSSLGTQTYICNVNHKPSNTKVDKKVEPKSCDKTHTCPPCPAPEAAGGPSVFLFPPKPKDTLMISRTPEVTCVVVDVSHEDPEVKFNWYVDGVEVHNAKTKPREEQYNSTYRVVSVLTVLHQDWLNGKEYKCKVSNKALGAPIEKTISKAKGQPREPQVYTLPPCREEMTKNQVSLWCLVKGFYPSDIAVEWESNGQPENNYKTTPPVLDSDGSFFLYSKLTVDKSRWQQGNVFSCSVMHEALHNHYTQKSLSLSPGK
light: QAVVTQEPSLTVSPGGTVTLTCRSSTGAVTTSNYANWVQQKPGQAPRGLIGGTNKRAPWTPARFSGSLLGDKAALTLLGAQPEDEAEYFCALWYSNLWVFGGGTKLTVLGQPKAAPSVTLFPPSSEELQANKATLVCLISDFYPGAVTVAWKADSSPVKAGVETTTPSKQSNNKYAASSYLSLTPEQWKSHRSYSCQVTHEGSTVEKTVAPTECS
heavy 2: EVQLLESGGGLVQPGGSLRLSCAASGFTFSSYAMIWVRQAPGKGLEWVSGISESGGSTYYADSVKGRFTISRDNSKNTLYLQMNSLRAEDTAVYFCVKDLDDILTGYYKDYWGQGTLVTVSSRTGGGGSKLEVQLLESGGGLVQPGGSLRLSCAASGFTFSSYAMIWVRQAPGKGLEWVSGISESGGSTYYADSVKGRFTISRDNSKNTLYLQMNSLRAEDTAVYFCVKDLDDILTGYYKDYWGQGTLVTVSSASEPKSSDKTHTCPPCPAPEAAGGPSVFLFPPKPKDTLMISRTPEVTCVVVDVSHEDPEVKFNWYVDGVEVHNAKTKPREEQYNSTYRVVSVLTVLHQDWLNGKEYKCKVSNKALGAPIEKTISKAKGQPREPQVCTLPPSREEMTKNQVSLSCAVKGFYPSDIAVEWESNGQPENNYKTTPPVLDSDGSFFLVSKLTVDKSRWQQGNVFSCSVMHEALHNHYTQKSLSLSPGK
[1]
  EC50: 57.2 nM

B2: anti-human BCMA HCAb monoclonal antibody PR001046 (antibody, human IgG1, V domains shown)
VH: EVQLVETGGGLIQPGGSLRLSCAASGFTVSDNYMTWVRQAPGKGLEWVSVIFSGGNTYYADSVKGRFTISRDNAKNTLYLQMNSLRAEDTALYYCARRNYDDTRGTDVFDIWGQGTMVTVSS
notes: also called PRO01046; HBM1005P63B7
[2]
  IC50: 2.94 nM
[3]
  EC50: 0.213 nM
[4]
  EC50: 1.53 nM
[5]
  EC50: 0.564 nM

B3: positive control 1, PR000274 (anti-BCMA antibody CA8-J6M0 hIgG1) (antibody, V domains shown)
VH: QVQLVQSGAEVKKPGSSVKVSCKASGGTFSNYWMHWVRQAPGQGLEWMGATYRGHSDTYYNQKFKGRVTITADKSTSTAYMELSSLRSEDTAVYYCARGAIYDGYDVLDNWGQGTLVTVSS
VL: DIQMTQSPSSLSASVGDRVTITCSASQDISNYLNWYQQKPGKAPKLLIYYTSNLHSGVPSRFSGSGSGTDFTLTISSLQPEDFATYYCQQYRKLPWTFGQGTKLEIKR
notes: Full-length hIgG1 control antibody
[2]
  IC50: 4.36 nM
[3]
  EC50: 4.07 nM
[4]
  EC50: 10.8 nM
[5]
  EC50: 4.56 nM
